{"source": "the nanobody polyreactivity screen of Harvey et al. (2022)", "data": [{"test": "yeast display, Sf9 membrane polyspecificity reagent, FACS + sequencing; frameworks hold sequencing errors", "procedure,_shortened": "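Synthetic nanobody libraries on Saccharomyces cerevisiae BJ5465 were galactose-induced for 36–48 hours, stained 1 hour at 4 °C with 10% biotinylated, detergent-solubilized Sf9 membrane reagent and enriched on streptavidin microbeads. FACS then separated cells into low and high (top ~1%) gates by anti-HA (expression) and streptavidin (reagent binding) fluorescence. Genes were colony-PCR amplified, MiSeq 2 × 250 sequenced and CDR-length filtered. A clone's polyreactivity label is that of its gate of origin.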", "values": [{"sequence": "QVQLQESGGGLVLAGGSLRLSCAASGNIFVYSYMGWYRQAPGKEREFVAAIGAGSTTYYADSVSRFTISRDNAKNTVYLQMNSLKPEDTAVYYCNAEITVNDDDYWGQGTQVTVSS", "polyreactivity (PSR sort gate)": "low polyreactivity"}, {"sequence": "QVQLQESGGGLVLAGGSLRLSCSASGNISFYGSMGWYRQAPGKESEFVATIDPGTNTNYADSVKDRFTISRDNAKNTVYLQMNSLKPEDTAVYYCAVEAGSDWPYRYWGQGTQVTVSS", "polyreactivity (PSR sort gate)": "low polyreactivity"}, {"sequence": "QVQLQESGGGLVLAGGSLRLSCSASGNNSVYGSMGWYRQAPGKEREFVATIDPGTNTNYADSVKDRFTISRDNAKNTVYLQMNSLKPEDTAVYYCAVEAGSDWPYRYWGQGTQVTVSS", "polyreactivity (PSR sort gate)": "low polyreactivity"}, {"sequence": "QVQLQESGGGLVQACGSLRLSCAASGYIFSHQYMGWYRQAPGKERELVASISPGATTNYADSVKGRFTISRDNAKNTVYLQMNSLKPEDTAVYYCARRYRPKYGYWGQGTQVTVSS", "polyreactivity (PSR sort gate)": "high polyreactivity"}, {"sequence": "QVQLQESGGGLVQACGSLRLSCAASGYIFSHQYMGWYRQAPGKERELVASISPGATTNYADSVKGRFTISRDNAKNTVYLQMNSLKPEDTAVYYYAVYQILDRRLSYWGQGTQVTVSC", "polyreactivity (PSR sort gate)": "high polyreactivity"}, {"sequence": "QVQLQESGGGLVQACGSQRLSCAASGSISEGQDKGWYRRAPGKEREFVAGIAPGATTYYADSEKGRFTISRDNAKNTVYLQMNSLKPEDTAVYFCAARSVTETDHDYWGQGTQVTVSS", "polyreactivity (PSR sort gate)": "low polyreactivity"}, {"sequence": "QVQLQESGGGLVQADGSLRLSCAASGSIIGYYYMGWYRQAPGKDRELVATINNCGITNYADSVKGLFTISRDNAKNTVYLQMNSLKPDDTAVYYCAADEYAQRDLGYWGQGTQVTVSN", "polyreactivity (PSR sort gate)": "low polyreactivity"}, {"sequence": "QVQLQESGGGLVQAGASLRLSCAASSNNSTLDVMGWYRQAPGKEREFVASIGSGGITNYADSVKGRFTISRDNAKNTVYLQMNSLKPEDTAVYYCAVLIQAYTDLIYWGQGTQVTLSS", "polyreactivity (PSR sort gate)": "high polyreactivity"}, {"sequence": "QVQLQESGGGLVQAGGCLSCTASGTIFGQGDMGWYRQAPGKERELVATINDGASTYYADSVKGRFTISRDKAKNTVYLQKNSLKPDDTAVYYCAVFKDITTYFGYLGQGTQVTVSS", "polyreactivity (PSR sort gate)": "low polyreactivity"}, {"sequence": "QVQLQESGGGLVQAGGDLRLICAASGNIFRDYIMGWYRQAPGKEREFVAGIDRGANTNYADSVIGRFTISRDNAKNSVFLQMNSRKPEVTAVYYCAVHNAIGPDFIYWGQGTQVTVSS", "polyreactivity (PSR sort gate)": "low polyreactivity"}, {"sequence": "QVQLQESGGGLVQAGGILRLSCAACGNIFPSAVMGWYRQALGKEREFVATINSGSNTYYADSVKGRFTISRDNAKNTVYLQMNSLNLEDNAVYYCAAYFKLPAWHTYWGQGTQVTVSS", "polyreactivity (PSR sort gate)": "low polyreactivity"}, {"sequence": "QVQLQESGGGLVQAGGILRMSCAASGTIFSEANMGWYRQAPGKERELVATIGQGSTTNYADSVKGRFTISRDNAKNTVYLQMNSLKPEETAVYYCAVVTVDAVGFVYWCQGTQVTVSS", "polyreactivity (PSR sort gate)": "low polyreactivity"}, {"sequence": "QVQLQESGGGLVQAGGNLRLSCAACGNIFPSAVMGWYRQALGKEREFVATINSGSNTYYADSVKGRFTISRDHAKNTVYLQTNSLKLEDTAVYYCAAYFKLPAWHTYWGQGTQVTVSS", "polyreactivity (PSR sort gate)": "low polyreactivity"}, {"sequence": "QVQLQESGGGLVQAGGRLRLSCAASGTISGPHVMGWYRQAPGKEREFFAAINVGANTYYADNVKGRYTISRDNAKNTVYLQMNSLKPEDTAVYYCAAVYYGDIGHEYWGQGTQVTVSC", "polyreactivity (PSR sort gate)": "low polyreactivity"}, {"sequence": "QVQLQESGGGLVQAGGRLSLSRAASGFISGTYCMGCYRQTPGQDREFVAGIGNGAITYYADSAKGCFTISRDNAKNAVYLQMNSLKQEETAVYYCAADGQWYYAPFRGGDYENDYWGQGTQVTVSS", "polyreactivity (PSR sort gate)": "low polyreactivity"}, {"sequence": "QVQLQESGGGLVQAGGSLCLSCAASGTIFFDGDMGWYRQAPGKEREFVAAINPGGSAYNADSVKGRLPLAAITHTVYLQMNSLKPEDTAVYYCSAKLFDVYGYYYWGQGTHVTVSS", "polyreactivity (PSR sort gate)": "low polyreactivity"}, {"sequence": "QVQLQESGGGLVQAGGSLLSCAASGTISWVDEMGWYRQAPGNERELVAGIAGGGNTNYADSVKGRFTISRDNAKNTVYLQMNSLDTAVYSCAVVGFGRGTHIYWGQGTQVTVSS", "polyreactivity (PSR sort gate)": "high polyreactivity"}, {"sequence": "QVQLQESGGGLVQAGGSLLSCAASGTISWVDEMGWYRQAPGNERELVAGIAGGGNTNYADSVKGRFTISRDNAKNTVYLQMNSLDTAVYYCAVVGFGLGTHIYWGQGTQVTVSS", "polyreactivity (PSR sort gate)": "high polyreactivity"}, {"sequence": "QVQLQESGGGLVQAGGSLLSCAASGTISYYREMGCYRQAPGKERELVAGIGVGTITYYADSVKGRFTISRDNAKNTVYLQLNSLKPEDNAVYYCAAHIDGNDSHAYWGQGTQVTVSS", "polyreactivity (PSR sort gate)": "low polyreactivity"}, {"sequence": "QVQLQESGGGLVQAGGSLLSCAASGTISYYREMGWYRPAPGKERELVAGIGVGTITYYADSVKGRFTISRDNAKNTVYLQMNSRKPEDTAVYYCAAHIDGNDSHAYWGQGTQVTVSS", "polyreactivity (PSR sort gate)": "low polyreactivity"}, {"sequence": "QVQLQESGGGLVQAGGSLLSCAASGTISYYREMGWYRQAPGKERELDAGIGVGTITSYADSVKGRFTISRDNAKNTVYLQMNSLKPEDTAVYYCAAHIDGNDSHAYWGQGTQVTVSC", "polyreactivity (PSR sort gate)": "low polyreactivity"}, {"sequence": "QVQLQESGGGLVQAGGSLLSCAASGTISYYREMGWYRQAPGKERELVAGIGVGTITYYADSVKGRITISRDNAKNTVYLQMNSLKPEDTAVYYCEAHIDGNDSHAYWGQGTQVTVSS", "polyreactivity (PSR sort gate)": "low polyreactivity"}, {"sequence": "QVQLQESGGGLVQAGGSLRLGCAASGNISDAGYMGWYRQAPGKEREFVAAIAAGSNTNYADSVKGRFTISRDNAKNTVNLQMNSLKPEDTAVFYCAVASYARVQYEYWGQGTQVTVNS", "polyreactivity (PSR sort gate)": "low polyreactivity"}, {"sequence": "QVQLQESGGGLVQAGGSLRLGCAASGNISDAGYMGWYRQAPGKEREFVAAIAAGSTTNYADSVKGRFTISRDNAKNTVYLQMNSLKPEDTAVFYCAVASYARVQFEYWGQGTQVTVNS", "polyreactivity (PSR sort gate)": "low polyreactivity"}, {"sequence": "QVQLQESGGGLVQAGGSLRLGCAASGNISDPGYMGWYRQAPGKEREFVAAIAAGSNTNYADSVKGRFTISRDNAKNTVYLLMNSLKPEDTAVFYCAVDSYARVQYEYWGQGTQVTVYS", "polyreactivity (PSR sort gate)": "low polyreactivity"}, {"sequence": "QVQLQESGGGLVQAGGSLRLSCAASCTISQEDWMGWYRQAPGKEREFVAAIGLGSNTNYADSLKGRFTISRDNAKNTVYLQMNSLKPEDTAVSYCAVSVWQYSDHVYRGQGTQVTVSS", "polyreactivity (PSR sort gate)": "low polyreactivity"}, {"sequence": "QVQLQESGGGLVQAGGSLRLSCAASGNFFDADIMGWYRQAPGKERELVASITDGGSTNYADSVKGRFTISRGNTKNTVYLLMNCLKPEDTSVYYCAAIAYPDMPTYFDYNSDYFYWGQGTQVTVSS", "polyreactivity (PSR sort gate)": "high polyreactivity"}, {"sequence": "QVQLQESGGGLVQAGGSLRLSCAASGNIFEADIMGWYHQAQGKERELVASITDGGSTNYADSVKGRFTINRDNAKNNVYLQMNSLKPEDTAVYYCAAIAYPDIPTYFDYDSDYFYWGQGTQVTVSS", "polyreactivity (PSR sort gate)": "high polyreactivity"}, {"sequence": "QVQLQESGGGLVQAGGSLRLSCAASGNIFSAGGMGWYRQAPVNERELVAGIGTGTSTNYADSVKGRFTISRDNAKNTVYLQMNSLKPEDTAVYYCAAAYYSGLSHWYWGQGTQVTVSS", "polyreactivity (PSR sort gate)": "low polyreactivity"}, {"sequence": "QVQLQESGGGLVQAGGSLRLSCAASGNIFSSGVMGWYRQAPGKERELVATINVGANTNYADSVKGRFTISRDNAKNTVYLQMNRLKPEDTAVYYCAVDKGDDGSFYLWGQGTQVTVSS", "polyreactivity (PSR sort gate)": "high polyreactivity"}, {"sequence": "QVQLQESGGGLVQAGGSLRLSCAASGNISVTGFMGWYRQAPGKERELVASIGIGGTTYYADSVKGRFSISRDNAKNTVYLQINSLKPVDTAVYYCAARYLYYAYSYWGQGTQVTVRS", "polyreactivity (PSR sort gate)": "low polyreactivity"}, {"sequence": "QVQLQESGGGLVQAGGSLRLSCAASGNIVDADIMGWYRQAPGKERELVASITDGGSTNYADSVKGRFTISSDNAKNTVYLQMNSLKPEDTAVYYCAAIAYPDIPTYFDYDSEYFYWGQGTQVTVSS", "polyreactivity (PSR sort gate)": "low polyreactivity"}, {"sequence": "QVQLQESGGGLVQAGGSLRLSCAASGNIVDADIMGWYRQAPRKERELVASITDGGSTNYADSVKGRFTISRDNAKNTVYLQMNSLIPEDTAVYYCAAISYPDIPTYFDYDSEYFYWGQGTQVSVSS", "polyreactivity (PSR sort gate)": "low polyreactivity"}, {"sequence": "QVQLQESGGGLVQAGGSLRLSCAASGPISGPHVMGWYRQAPGKEREFVAAINVGANTYYADNVKGRFTISRDNATNTVYLQMNSLKPEDTAVYYCAAVYYGDIGHEYWGQGTQVTVSC", "polyreactivity (PSR sort gate)": "low polyreactivity"}, {"sequence": "QVQLQESGGGLVQAGGSLRLSCAASGSIFDYVSMGWYRQAPGEERELVVTITLGSNTYYADSVKGRFTISSDIAKNTVYLQMNSLNPEDTAVYYCAPSALWGYVYPYWGLGTQVTVSS", "polyreactivity (PSR sort gate)": "high polyreactivity"}, {"sequence": "QVQLQESGGGLVQAGGSLRLSCAASGSIFLFYTMGWYRQAPVKEREFVAGITLGTTTYNADSVKGRFTISRDNVKNTVYLQMNSLKPEDTAVYYCNAVGDARYNYWGQGTQVTVSS", "polyreactivity (PSR sort gate)": "high polyreactivity"}, {"sequence": "QVQLQESGGGLVQAGGSLRLSCAASGSIFNVVDMGLYRQAPAKEREFVATIGEGGNTYYADSLKGSFTISRDNAKNTVYLQMNSLKPEDTAVYFYAVVLGTSFRYTYWGQGTQVTVSS", "polyreactivity (PSR sort gate)": "low polyreactivity"}, {"sequence": "QVQLQESGGGLVQAGGSLRLSCAASGSISGPHLMGWYRQAPGQEREFVAAINVGANTYYADNVKGRFTISRDNAKNTLYLQMNSLKPEDTAVYYCAAVYYGDIGHEYWGQGTQVTVSC", "polyreactivity (PSR sort gate)": "low polyreactivity"}, {"sequence": "QVQLQESGGGLVQAGGSLRLSCAASGSISNSAAKVWYRQAPGKERELVVSIGHGASSNYADSVKGRFTISRDNAKNTVYLQMNSLKPEDTAVYYCAAYPGFLDGFFYWGQSTQVTVSS", "polyreactivity (PSR sort gate)": "high polyreactivity"}, {"sequence": "QVQLQESGGGLVQAGGSLRLSCAASGSISRLDYMGWYRQPSGKERELVAAIDNGSTTYYADSVKGRLTISRDNAKYTVYLQMNSLKPEDTAVYFCAAVRGRGGTHAYWGQGTQVTVSG", "polyreactivity (PSR sort gate)": "low polyreactivity"}, {"sequence": "QVQLQESGGGLVQAGGSLRLSCAASGSISSRDAMGWYRQAPGKEREFVATIASGTTTYYADSVKGSFTISRDNAENTLYLQTNSLKPEDTAVYYCAAPTIQIYPFYYWGQGTQVTVSS", "polyreactivity (PSR sort gate)": "high polyreactivity"}, {"sequence": "QVQLQESGGGLVQAGGSLRLSCAASGTISDSGLMGWYRQAPVKERELVAGIRSGGITNYADSVKGRFTISRDNAKNTVYLQMNSLKPEDTAVYWGQGTQVTVSS", "polyreactivity (PSR sort gate)": "low polyreactivity"}, {"sequence": "QVQLQESGGGLVQAGGSLRLSCAASGTISQEDWMGWYRQAPGKEREFVAAIGLGSNTNYADSLKGRFSISRDPAKITVYLQMNSLKPEDTAVYYCAVSVWQYSDHVYRGQGTQVTVSS", "polyreactivity (PSR sort gate)": "low polyreactivity"}, {"sequence": "QVQLQESGGGLVQAGGSLRLSCAASGTISYAPHMGWYRQAPGKERELVAGITIGGTTYYADIVIGRFTISRDNAKNTVFLQMNSLSPGDTAVYYCAAHSEQYTPFYYWGQGTQVTVSS", "polyreactivity (PSR sort gate)": "low polyreactivity"}]}]}
